From the MegaScale stability set (Tsuboyama et al. 2023)

B1: 5KPH (parent)
chain: EEKRQVKQVAKEKLLEQSPNSKVQVRRVQKQGNTIRVELELRTNGKKENYTVEVERQGNTWTVKRITRT

Variants of: B1
Test: folding stability dG (cDNA display proteolysis); higher = more stable
Settings: PBS, room temperature

Folding stability dG [kcal/mol], by site and new letter:
Q57: N 3.9 | T 4.03 | R 3.73 | E 4.17 | C 3.53 | S 3.89 | A 3.81 | K 3.83 | I 4.25 | H 3.82 | M 3.89 | G 3.16 | Y 4.03 | P 2.19 | W 3.83 | F 3.88 | V 4.18 | L 3.96 | D 4.07
I66: W 3.15 | Y 2.85 | E 1.1 | Q 1.95 | L 3.25 | F 3.04 | K 1.54 | P 1.72 | A 2.2 | S 2.1 | G 0.993 | M 3.38 | H 1.67 | D 0.142 | V 3.94 | C 2.88 | R 1.28 | N 1.2
T51: M 3.95 | H 3.24 | S 3.75 | G 2.5 | L 3.99 | R 3.33 | V 4.22 | N 3.09 | E 3.87 | K 3 | W 3.98 | Y 3.75 | Q 3.56 | F 3.66 | I 4.13
K64: E 2.86 | V 4.3 | Q 3.56 | M 4.28 | D 2.18 | I 4.47 | N 3.48 | Y 3.5 | H 3.25 | P 2.28 | R 3.94 | C 3.62 | T 4.29 | A 3.83 | L 4.27 | W 3.08 | S 3.94 | F 3.7 | G 3.25
R65: G 3.6 | C 3.44 | I 3.43 | E 3.61 | A 4.27 | D 3.59 | V 3.54 | L 3.67 | S 4.29 | Q 3.84 | W 3.63 | Y 3.7 | N 3.73 | T 4.05 | F 3.53 | M 3.84 | H 3.58 | K 4.01 | P 1.4
N59: F 3.54 | G 4 | P 3.84 | I 3.54 | E 3.92 | R 3.33 | L 3.68 | M 3.92 | Y 3.82 | V 3.42 | H 3.62 | K 3.73 | D 4.01 | Q 3.77 | C 3.22 | S 3.62 | A 3.69 | T 3.77 | W 3.5
E53: H 3.47 | G 2.14 | M 3.58 | F 4.03 | Q 3.39 | D 3.76 | C 3.34 | K 2.54 | S 3.33 | T 3.62 | V 3.94 | A 2.99 | N 2.78 | R 2.69 | W 4.23 | L 4.04 | Y 4.21 | I 4.15 | P -0.812
E55: S 3.56 | T 3.7 | C 3.34 | M 3.88 | G 3.19 | D 3.2 | N 2.91 | Y 3.92 | K 3.19 | L 3.54 | P -0.38 | Q 3.7 | W 3.92 | H 3.65 | I 4.11 | R 3.1 | V 4.08 | F 3.92 | A 3.45
V52: G 0.851 | L 3.48 | C 2.92 | S 1.21 | F 2.52 | T 1.61 | M 3.22 | Y 1.78 | I 3.65 | Q -0.464 | W 1.58 | A 3.31
T69: E 3.82 | F 3.52 | C 3.56 | A 3.68 | D 3.73
G58: V 3.02 | L 3.33 | W 3 | T 2.84 | H 3.4 | I 2.86 | Y 3.15 | R 2.97 | K 3.4 | S 3.36 | F 3.43 | M 3.24 | C 3.16 | A 3.33 | N 3.7 | P 2.25 | Q 3.5 | E 3.7 | D 3.75
W61: G 1.39 | T 2.21 | H 2.59 | P 1.94 | V 2.9 | R 1.41 | E 0.848 | A 2.23 | N 1.83 | D 1.07 | I 3.14 | C 2.68 | K 0.975 | M 3.21 | L 3.64 | Q 1.88 | Y 4.03 | S 2 | F 3.74
V54: F 4.06 | R 0.035 | H 0.815 | N 0.723 | Y 2.94 | G 1.44 | Q 0.909 | T 2.23 | E 1.33 | C 3.36 | A 2.62 | W 2.75 | D -0.632 | L 3.94 | M 3.85 | K 1.28 | I 3.92 | S 1.63
T60: Q 4.23 | S 4.13 | L 3.63 | Y 3.79 | R 3.97 | G 4.12 | E 4.16 | W 4.16 | D 3.77 | K 3.99 | P 1.45 | H 4.02 | A 3.83 | V 4.01 | F 3.96 | C 3.33 | I 4.11 | N 4.07 | M 4
T67: H 3.62 | C 3.68 | I 4.09 | R 3.73 | F 4.23 | K 3.55 | A 3.46 | G 3.01 | Y 4.38 | E 3.64 | N 3.32 | Q 3.54 | M 3.98 | V 3.96 | S 3.68 | D 3.3 | L 4.01 | W 4.45 | P 1.34
V63: W 2.07 | I 3.47 | L 2.88 | P 2.8 | N 0.507 | G 1.35 | K 0.466 | E 1.26 | Q 1.16 | T 2.51 | R 0.762 | H 1.18 | Y 2.01 | M 2.06 | S 1.81 | D 0.956 | F 2.78 | A 3.02 | C 2.96
T62: R 3.9 | F 4.24 | V 4.27 | Q 3.92 | A 4.05 | S 3.75 | I 4.26 | G 3.48 | Y 4.57 | P 1.79 | M 3.97 | C 3.48 | E 3.82 | L 4.03 | K 3.96 | D 3.13 | H 3.93 | W 4.24 | N 3.62
R68: H 3.59 | I 3.67 | D 2.65 | S 3.21 | Y 3.32 | N 3.89 | C 3.34 | F 3.53 | V 3.46 | L 4.21 | W 3.07 | T 3 | E 3.13 | P 3.54 | Q 3.73 | K 3.99 | G 2.87 | M 3.95 | A 3.4
R56: K 4.11 | Y 3.72 | I 3.29 | S 3.26 | C 3.59 | G 3.19 | Q 3.51 | N 2.97 | A 3.25 | E 2.88 | T 2.83 | D 2.42 | P 2.93 | V 3.24 | H 3.38 | F 3.83 | W 4.17 | L 3.84 | M 3.61
